The supplement of paper PMC9112550, “Optimization of the antimicrobial peptide Bac7 by deep mutational scanning” (BMC Biology, 2022)

tested on: Escherichia coli TOP10; assay: shrunken log2 fold change of peptide-encoding DNA abundance (4.5 h post-induction vs induction); higher = less antimicrobial activity (less host growth inhibition); conditions: time post-induction: 4.5 h; library: site-saturation at positions 5, 18, 19, 20
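Also: peptides expressed intracellularly from a pBAD plasmid library in pooled LB shake-flask culture, induced with 0.3% L-arabinose, DNA abundance read by NGS, three biological replicates, DESeq2 with apeglm shrinkage.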

| Sequence | shrunken log2 fold change |
| --- | --- |
| RRIRVRPPRLPRPRPRPFFEPRP | 0.142 |
| RRIRSRPPRLPRPRPRPEDCPRP | 0.0867 |
| RRIRMRPPRLPRPRPRPNGGPRP | 0.112 |
| RRIRKRPPRLPRPRPRPHWKPRP | -0.00804 |
| RRIRIRPPRLPRPRPRPGTWPRP | -0.475 |
| RRIRYRPPRLPRPRPRPIWCPRP | -0.268 |
| RRIRCRPPRLPRPRPRPWGDPRP | -0.142 |
| RRIRWRPPRLPRPRPRPFYCPRP | -0.151 |
| RRIRCRPPRLPRPRPRPYIFPRP | -0.773 |
| RRIRFRPPRLPRPRPRPDYCPRP | -0.127 |
| RRIRARPPRLPRPRPRPHFHPRP | -0.197 |
| RRIRYRPPRLPRPRPRPQNPPRP | -0.483 |
| RRIRSRPPRLPRPRPRPLGCPRP | 0.285 |
| RRIRRRPPRLPRPRPRPWEPPRP | 0.0979 |
| RRIRFRPPRLPRPRPRPTVSPRP | -0.00542 |
| RRIRGRPPRLPRPRPRPCHTPRP | -0.0963 |
| RRIRQRPPRLPRPRPRPMRMPRP | 0.0593 |
| RRIRMRPPRLPRPRPRPMFAPRP | 0.304 |
| RRIRHRPPRLPRPRPRPTNNPRP | -0.467 |
| RRIRNRPPRLPRPRPRPGCGPRP | 0.451 |
| RRIRNRPPRLPRPRPRPVERPRP | 0.265 |
| RRIRRRPPRLPRPRPRPYQRPRP | -0.0429 |

| Sequence | shrunken log2 fold change |
| --- | --- |
| RRIRIRPPRLPRPRPRPHADPRP | -0.178 |
| RRIRSRPPRLPRPRPRPGQGPRP | 0.0895 |
| RRIRYRPPRLPRPRPRPCNCPRP | -0.0018 |
| RRIRGRPPRLPRPRPRPRIDPRP | 0.731 |
| RRIRCRPPRLPRPRPRPFACPRP | -0.22 |
| RRIRHRPPRLPRPRPRPFDFPRP | -1.21 |
| RRIRIRPPRLPRPRPRPCSRPRP | -0.139 |
| RRIRARPPRLPRPRPRPNVLPRP | 0.00594 |
| RRIRQRPPRLPRPRPRPCRQPRP | 0.0342 |
| RRIRARPPRLPRPRPRPNTFPRP | -0.0206 |
| RRIRNRPPRLPRPRPRPYANPRP | 0.0782 |
| RRIRHRPPRLPRPRPRPFHDPRP | -0.152 |
| RRIRSRPPRLPRPRPRPNYSPRP | -0.401 |
| RRIRTRPPRLPRPRPRPNDSPRP | -0.00242 |
| RRIRLRPPRLPRPRPRPMCNPRP | 0.107 |
| RRIRARPPRLPRPRPRPYNYPRP | 1.34 |
| RRIRNRPPRLPRPRPRPYEAPRP | -0.143 |
| RRIRIRPPRLPRPRPRPSQSPRP | -0.0979 |
| RRIRHRPPRLPRPRPRPAFVPRP | 0.113 |
| RRIRSRPPRLPRPRPRPWQLPRP | -0.018 |
| RRIRTRPPRLPRPRPRPYQGPRP | -0.0132 |
| RRIRVRPPRLPRPRPRPYWLPRP | -0.411 |

| Sequence | shrunken log2 fold change |
| --- | --- |
| RRIRSRPPRLPRPRPRPVRNPRP | 0.0299 |
| RRIRHRPPRLPRPRPRPILWPRP | -0.0569 |
| RRIRWRPPRLPRPRPRPFQEPRP | -0.0827 |
| RRIRFRPPRLPRPRPRPWNMPRP | -0.24 |
| RRIRVRPPRLPRPRPRPTWQPRP | 0.27 |
| RRIRLRPPRLPRPRPRPFKDPRP | -0.023 |
| RRIRERPPRLPRPRPRPTRFPRP | 0.169 |
| RRIRMRPPRLPRPRPRPEEHPRP | 2.85 |
| RRIRYRPPRLPRPRPRPMCDPRP | -0.987 |
| RRIRIRPPRLPRPRPRPKQGPRP | 0.391 |
| RRIRPRPPRLPRPRPRPFDRPRP | 0.0133 |
| RRIRNRPPRLPRPRPRPCNLPRP | -0.134 |
| RRIRLRPPRLPRPRPRPCPRPRP | 0.0559 |
| RRIRWRPPRLPRPRPRPRDQPRP | -0.033 |
| RRIRGRPPRLPRPRPRPFYWPRP | 0.161 |
| RRIRERPPRLPRPRPRPILSPRP | -0.316 |
| RRIRSRPPRLPRPRPRPNRKPRP | -0.596 |
| RRIRFRPPRLPRPRPRPEPPPRP | 0.702 |
| RRIRSRPPRLPRPRPRPEGKPRP | 0.0822 |
| RRIRVRPPRLPRPRPRPGYLPRP | -0.14 |
| RRIRQRPPRLPRPRPRPCYHPRP | -0.947 |
| RRIRSRPPRLPRPRPRPRTQPRP | 0.107 |

| Sequence | shrunken log2 fold change |
| --- | --- |
| RRIRGRPPRLPRPRPRPQWIPRP | 0.518 |
| RRIRHRPPRLPRPRPRPRTFPRP | 0.147 |
| RRIRWRPPRLPRPRPRPHDDPRP | 0.0487 |
| RRIRTRPPRLPRPRPRPKVGPRP | 0.2 |
| RRIRTRPPRLPRPRPRPGKEPRP | -0.00507 |
| RRIRDRPPRLPRPRPRPHRDPRP | -0.0968 |
| RRIRQRPPRLPRPRPRPAGRPRP | 0.978 |
| RRIRCRPPRLPRPRPRPKPTPRP | 0.128 |
| RRIRVRPPRLPRPRPRPGIGPRP | 0.344 |
| RRIRGRPPRLPRPRPRPNFYPRP | 0.22 |
| RRIRYRPPRLPRPRPRPDSKPRP | -0.352 |
| RRIRVRPPRLPRPRPRPNCGPRP | 0.0742 |
| RRIRARPPRLPRPRPRPCFRPRP | -0.0247 |
| RRIRERPPRLPRPRPRPFYQPRP | -0.0388 |
| RRIRCRPPRLPRPRPRPMWYPRP | -0.414 |
| RRIRPRPPRLPRPRPRPWISPRP | -0.161 |
| RRIRLRPPRLPRPRPRPFPYPRP | 0.015 |
| RRIRIRPPRLPRPRPRPMRAPRP | 1.01 |
| RRIRYRPPRLPRPRPRPYCLPRP | -1.15 |
| RRIRKRPPRLPRPRPRPWYTPRP | -0.177 |
| RRIRGRPPRLPRPRPRPNCAPRP | 0.811 |
| RRIRCRPPRLPRPRPRPQTIPRP | -0.516 |

| Sequence | shrunken log2 fold change |
| --- | --- |
| RRIRGRPPRLPRPRPRPGSCPRP | 1.03 |
| RRIRNRPPRLPRPRPRPFMDPRP | 0.0237 |
| RRIRCRPPRLPRPRPRPYYSPRP | -0.437 |
| RRIRHRPPRLPRPRPRPCKFPRP | 0.0809 |
| RRIRGRPPRLPRPRPRPATVPRP | 0.244 |
| RRIRARPPRLPRPRPRPMDQPRP | -0.194 |
| RRIRGRPPRLPRPRPRPVKCPRP | -0.118 |
| RRIRMRPPRLPRPRPRPMRDPRP | 1.3 |
| RRIRWRPPRLPRPRPRPMMIPRP | -0.0137 |
| RRIRWRPPRLPRPRPRPSGYPRP | 0.141 |
| RRIRVRPPRLPRPRPRPGSYPRP | -0.186 |
| RRIRNRPPRLPRPRPRPLQPPRP | -0.187 |
| RRIRLRPPRLPRPRPRPDGTPRP | 0.245 |
| RRIRKRPPRLPRPRPRPGQRPRP | 0.328 |
| RRIRSRPPRLPRPRPRPCPGPRP | -0.234 |
| RRIRNRPPRLPRPRPRPAQWPRP | 0.525 |
| RRIRARPPRLPRPRPRPFCSPRP | -0.0878 |
| RRIRFRPPRLPRPRPRPCESPRP | 0.00749 |
| RRIRIRPPRLPRPRPRPLMLPRP | -0.704 |
| RRIRQRPPRLPRPRPRPRITPRP | 1.06 |
| RRIRDRPPRLPRPRPRPTMKPRP | 0.192 |
